In the supplement of paper PMC7877785:
± gives the uncertainty stated by the source.

Experiment: self-splicing fitness, log relative to wild type (ln ratio); higher = more splicing; Tetrahymena group I intron in knt gene, E. coli kanamycin selection, DiMSum; sequences stand for … in CUCUCU…GGAGGGAAAAGUUAUCAGGCAUGCACCUGGUAGCUAGUCUUUAAACCAAUAGAUUGCAUCGGUUUAAAAGGCAAGACCGUCAAAUUGCGGGAAAGGGGUCAACAGCCGUUCAGUACCAAGUCUCAGGGGAAACUUUGAGAUGGCCUUGCAAAGGGUAUGGUAAUAAGCUGACGGACAUGGUCCUAACCACGCAGCCAAGUCCUAAGUCAACAGAUCUUCUGUUGAUAUGGAUGCAGUUCACAGACUAAAUGUCGGUCGGGGAAGAUGUAUUCUUCUCAUAAGAUAUAGUCGGACCUCUCCUUAAUGGGAGCUAGCGGAUGAAGUGAUGCAACACUGGAGCCGCUGGGAACUAAUUUGUAUGCGAAAGUAUAUUGAUUAGUUUUGGAGUACUCGUGGUCG
Outline: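 Fitness was computed with DiMSum as the error-weighted combination of replicate fold changes, kanamycin versus none, each normalised to wild type. The library randomised all eight intron nucleotides of the P1ex region, with the intron placed in the knt kanamycin-resistance gene on pET-22b(+) in E. coli BL21(DE3). Six replicate transformations were grown overnight at 37°C or 30°C on LB agar with or without 25 μg/mL kanamycin, plus 100 μg/mL carbenicillin, 50 μM IPTG and 0.2% rhamnose. Pooled colonies were amplicon-sequenced on an Illumina HiSeq 2500.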

Sequence	self-splicing fitness (ln) (30 °C)	self-splicing fitness (ln) (37 °C)
GGUAAGCAAUAUUACGACAA	-0.393 ± 0.1	-0.112 ± 0.16
GGUAAGCAAUAUUACGACAU	-0.0747 ± 0.013	-0.0479 ± 0.033
GGUAAGCAAUAUUACGACCA	-1.47 ± 0.17	-0.643 ± 0.21
GGUAAGCAAUAUUACGAGCA	-0.801 ± 0.093	-0.377 ± 0.12
GGUAAGCAAUAUUACGAGGU	-3.61 ± 0.37	-2.22 ± 0.28
GGUAAGCAAUAUUACGAUUC	-0.184 ± 0.14	0.0485 ± 0.14
GGUAAGCAAUAUUACGCCAU	-2.39 ± 0.36	-1.86 ± 0.29
GGUAAGCAAUAUUACGCGGU	-3.85 ± 0.31	-0.403 ± 0.15
GGUAAGCAAUAUUACGGAAA	-3.13 ± 0.35	-0.547 ± 0.16
GGUAAGCAAUAUUACGGGGG	-3.98 ± 0.46	-3.13 ± 0.2
GGUAAGCAAUAUUACGGUAA	-1.6 ± 0.17	-0.53 ± 0.14
GGUAAGCAAUAUUACGGUCC	-1.57 ± 0.34	
GGUAAGCAAUAUUACGUCUA	-0.569 ± 0.1	-0.562 ± 0.1
GGUAAGCAAUAUUACGUGCC	-3.17 ± 0.39	-3.07 ± 0.38
GGUAAGCAAUAUUACGUGCG	-1.12 ± 0.12	-0.227 ± 0.12
GGUAAGCAAUAUUACGUGCU	-2.24 ± 0.18	-1.36 ± 0.2
GGUAAGCAAUAUUACGUUAA	-2.57 ± 0.29	-1.37 ± 0.2
GGUAAGCAAUAUUACGUUGC	-3.3 ± 0.32	-2.95 ± 0.4
GGUAAGCAAUAUUACGUUUA	-2.68 ± 0.17	-0.278 ± 0.11
GGUCAGCAAUAUUACGAAAU	-1.15 ± 0.097	0.351 ± 0.12
GGUCAGCAAUAUUACGAACU	-0.446 ± 0.25	-1.74 ± 0.21
GGUCAGCAAUAUUACGACUU	-0.64 ± 0.081	-1.09 ± 0.087
GGUCAGCAAUAUUACGAGCA	-0.762 ± 0.32	
GGUCAGCAAUAUUACGAGUA	-2.09 ± 0.18	-1.32 ± 0.14
GGUCAGCAAUAUUACGCCAG	-3.3 ± 0.47	-3.3 ± 0.4
GGUCAGCAAUAUUACGCGCU		-2.13 ± 0.15

Sequence	self-splicing fitness (ln) (30 °C)	self-splicing fitness (ln) (37 °C)
GGUCAGCAAUAUUACGCUAA	-1.1 ± 0.095	0.512 ± 0.13
GGUCAGCAAUAUUACGGAAA	-1.22 ± 0.11	-0.845 ± 0.11
GGUCAGCAAUAUUACGGGCA	-0.684 ± 0.1	-0.119 ± 0.11
GGUCAGCAAUAUUACGGUCG	-0.085 ± 0.066	0.661 ± 0.09
GGUCAGCAAUAUUACGGUCU	-1.28 ± 0.12	-0.217 ± 0.13
GGUCAGCAAUAUUACGGUUG	-1.07 ± 0.1	-0.43 ± 0.12
GGUCAGCAAUAUUACGUACG	0.123 ± 0.08	-0.609 ± 0.082
GGUCAGCAAUAUUACGUAUG	-1.66 ± 0.085	0.0829 ± 0.1
GGUCAGCAAUAUUACGUGAU	-3.88 ± 0.22	-2.14 ± 0.11
GGUCAGCAAUAUUACGUGUA	-0.892 ± 0.071	-0.855 ± 0.082
GGUCAGCAAUAUUACGUGUC	-0.998 ± 0.12	-0.0483 ± 0.13
GGUCAGCAAUAUUACGUUCA	-0.169 ± 0.13	-0.487 ± 0.13
GGUCAGCAAUAUUACGUUCG	-0.853 ± 0.093	0.373 ± 0.13
GGUGAGCAAUAUUACGAAAA	-2.57 ± 0.32	-2.66 ± 0.38
GGUGAGCAAUAUUACGACCA	-1.21 ± 0.25	-0.616 ± 0.31
GGUGAGCAAUAUUACGACCU	-2.12 ± 0.26	-2.52 ± 0.49
GGUGAGCAAUAUUACGACUG	-0.488 ± 0.11	0.309 ± 0.13
GGUGAGCAAUAUUACGAGAU		-2.44 ± 0.24
GGUGAGCAAUAUUACGAGGA	-1.95 ± 0.39	-2.02 ± 0.33
GGUGAGCAAUAUUACGAUUU	-1.35 ± 0.23	-0.612 ± 0.25
GGUGAGCAAUAUUACGCCAG	-2.86 ± 0.47	
GGUGAGCAAUAUUACGCCGA	-2.06 ± 0.46	-1.46 ± 0.48
GGUGAGCAAUAUUACGCGUA	-1.95 ± 0.3	-0.54 ± 0.21
GGUGAGCAAUAUUACGGAAU	-2.53 ± 0.39	0.428 ± 0.28
GGUGAGCAAUAUUACGGCUU	-1.7 ± 0.16	-0.614 ± 0.17
GGUGAGCAAUAUUACGGGUC	-1.98 ± 0.11	-2.4 ± 0.15

Sequence	self-splicing fitness (ln) (30 °C)	self-splicing fitness (ln) (37 °C)
GGUGAGCAAUAUUACGGUGU	-3.9 ± 0.36	-2.05 ± 0.31
GGUGAGCAAUAUUACGUCGG	-2.16 ± 0.28	-2.5 ± 0.3
GGUGAGCAAUAUUACGUGGG	-3.2 ± 0.23	-2.09 ± 0.23
GGUGAGCAAUAUUACGUUCC	-1.39 ± 0.18	-0.666 ± 0.24
GGUGAGCAAUAUUACGUUCU	0.501 ± 0.28	-1.16 ± 0.27
GGUGAGCAAUAUUACGUUGA	-2.7 ± 0.43	-1.05 ± 0.18
GGUUAGCAAUAUUACGACGC	0.551 ± 0.17	0.289 ± 0.16
GGUUAGCAAUAUUACGACGU	0.152 ± 0.071	0.738 ± 0.089
GGUUAGCAAUAUUACGACUC	-1.58 ± 0.17	-0.677 ± 0.21
GGUUAGCAAUAUUACGAGGU		-2.43 ± 0.32
GGUUAGCAAUAUUACGCCCG	-3.15 ± 0.49	-1.55 ± 0.48
GGUUAGCAAUAUUACGCCGA	-1.52 ± 0.25	-0.734 ± 0.23
GGUUAGCAAUAUUACGCCUC	-0.314 ± 0.17	-1.4 ± 0.2
GGUUAGCAAUAUUACGCGUU	-1.01 ± 0.17	-0.358 ± 0.19
GGUUAGCAAUAUUACGCUUG	-2.32 ± 0.15	-1.82 ± 0.2
GGUUAGCAAUAUUACGGCCA	-0.0519 ± 0.23	0.0427 ± 0.2
GGUUAGCAAUAUUACGGCUC	-2.05 ± 0.33	-0.541 ± 0.46
GGUUAGCAAUAUUACGGCUG	-0.585 ± 0.16	0.214 ± 0.28
GGUUAGCAAUAUUACGGUAG	-2.79 ± 0.15	-2.28 ± 0.2
GGUUAGCAAUAUUACGUAUC	-0.749 ± 0.12	0.0936 ± 0.15
GGUUAGCAAUAUUACGUCUU	-0.107 ± 0.093	0.227 ± 0.11
GGUUAGCAAUAUUACGUUAC	-2.81 ± 0.19	-1.47 ± 0.23
GGUUAGCAAUAUUACGUUUG	-4.51 ± 0.34	-1.42 ± 0.17
GUAAAGCAAUAUUACGAAGU	-1.47 ± 0.077	-0.327 ± 0.098
GUAAAGCAAUAUUACGACAC	0.603 ± 0.098	0.696 ± 0.12
